Experiment: soluble on expression in E. coli; label from the status in PepcDB or PDB records

Sequence | soluble on expression in E. coli
GPGSMSCEVTMVGRDRDYLHDVQYGSRTFRLADRRIRAPSGLTVRAVDAEPIKDDVGVDAVLSCVPATCLENDGAHTPPMVRCAQNHADAPMLLFTRGFTREGLTPLEQLGRVSQDLPSKLVVVSGPLFAREWAVTSAAACDGGDANRNSGVTLSFALGGKADVELSRSLQSLTERLWRRESVTWLDGPLAAEILSLVNGCVPLCSMGAGLVSSEYPGSVSATMSYLQHATSATEQLVNGVLGLPLGSPLPSCAVATIAMACTNHAAREFVFGRRLDYHFRHRDAIRAVFPAGSHEALDSTVSGLHMLLRRHAMSSPFYEVLMDTFLTLMRASVAGRELVRLGHYEYRHKLRDEDTVLLRHTEVVDEAMLSGDHQRFDDARRALQMAFGDSSCGAPTMPPL | not soluble
MGSDKIHHHHHHMNIQQLRYVVAIANSGTFREAAAKLFVSQPSLSVAVRDLETELGFQIFTRTTTGAVLTNQGMTFYENALEVVKSFDSFEKQFSQSEATEQEFSIASQHYDFLPPLITAFSKCNDNFSYFRIFESTTIRILDEVAQGNSEIGIIYINSQNKKGLLQRLDKLGLEFVELIPFKTHIYLGKDHPLASKTSLIMTDLEGLPTVRFTQDRDDYRYYSENFVEVLDSSVTYNVTDRATLNGILERTQAYATGSGFLDSRSVNGITVIPLEDHLDNQMIYIKRKDRNLSQMALKFVAVMEEYFKGFNS | not soluble
MGSDKIHHHHHHENDPPLSSCGIFQSRIAGDALLDSGIRISSVFASPALRCVQTAKLILEELKLEKKIKIRVEPGIFEWTKWEAGKTTPTLMSLEELKEANFNIDTDYRPAFPLSALMPAESYQEYMDRCTASMVQIVNTCPQDTGVILIVSHGSTLDSCTRPLLGLPPRECGDFAQLVRKIPSLGMCFCEENKEEGKWELVNPPVKTLTHGANAAFNWRNWISGN | not soluble
MNKQLTTIGIMASLFATSSFATDWTQIEKEAQGQTVYFHAWGGSQEINHYLQWANKELQSKYQVTLKHVKVSDISETIPRLIAEKAADKNTNGSVDMVWINGENFKSMKDNQLLFGPFTENLPSWKYVDKMLPIDVDFSEPTDGLEAPWGVGQLVFIHDSENLTNPPHSFAEMLSYAQKKPNSLSYPRPPEFHGTSVLKSMLIELTNNNPALQKPVSESDFNAVTAPLWDYLEKFHKVAWRGGKQFPAGTSETIQLLDDGQLDLAVTFNPNAVYSAQANGNLANTTKAYAMDSGALSNIHFLAIPWNAKASAGAQVAINFLLSPEAQSRKGDLNVWGDPSVLSSKYLTGSAKNTQQFKSVSEPHPSWQAAIEKEWLKRFGS | soluble
MGLIFAKLWSLFCNQEHKVIIVGLDNAGKTTILYQFLMNEVVHTSPTIGSNVEEIVVKNTHFLMWDIGGQESLRSSWNTYYSNTEFIILVVDSIDRERLAITKEELYRMLAHEDLRKAAVLIFANKQDMKGCMTAAEISKYLTLSSIKDHPWHIQSCCALTGEGLCQGLEWMTSRIGVR | soluble

From the DeepSol protein solubility set
